Source: patent US20220289856A1 (IGM BIOSCIENCES, published 2022)

T1: recombinant human CD123 protein (Sino Biological 10518-H08H-50) (human, UniProt P26951 19-305)
T1 construct: also called IL-3 receptor alpha chain; IL-3Rα
T1 sequence (looked up): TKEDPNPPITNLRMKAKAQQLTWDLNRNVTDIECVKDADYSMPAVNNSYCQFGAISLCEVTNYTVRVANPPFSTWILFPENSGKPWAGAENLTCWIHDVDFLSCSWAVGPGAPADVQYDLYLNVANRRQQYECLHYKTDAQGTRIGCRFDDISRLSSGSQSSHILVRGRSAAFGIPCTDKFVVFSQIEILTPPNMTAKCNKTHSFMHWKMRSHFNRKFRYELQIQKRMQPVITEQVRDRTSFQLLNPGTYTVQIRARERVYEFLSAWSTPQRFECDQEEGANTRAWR


What was measured:
[1] = molecular target: recombinant human CD3ε protein (Acro Biosystems, CDE-H5256-100) (human, UniProt P07766 23-126); assay: ELISA on plate-coated recombinant human CD3ε
Chain of recombinant human CD3ε protein (Acro Biosystems, CDE-H5256-100) (P07766 23-126 limits assumed): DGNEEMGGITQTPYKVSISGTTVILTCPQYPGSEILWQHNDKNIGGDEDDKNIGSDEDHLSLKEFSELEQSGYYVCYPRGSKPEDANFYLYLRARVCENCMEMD
Experimental: (§1) 96-well white polystyrene ELISA plates (Pierce 15042) were coated with 100 μL per well of 0.5 μg/mL recombinant human CD123 protein (Sino Biological 10518-H08H-50) or recombinant human CD3ε protein (Acro Biosystems, CDE-H5256-100) overnight at 4° C. Plates were then washed 5 times with 0.05% PBS-Tween and blocked with 2% BSA-PBS. After blocking, 100 μL of serial dilutions of CD123 IgM or IgG, standards, and controls were added to the wells and incubated at room temperature for 2 hours. The plates were then washed 10 times and incubated with HRP conjugated mouse anti-human kappa (Southern Biotech, 9230-05. 1:6000 diluted in 2% BSA-PBS) for 30 min. After 10 final washes using 0.05% PBS-Tween, the plates were read out using SuperSignal chemiluminescent substrate (ThermoFisher, 37070). Luminescent data were collected on an EnVision plate reader (Perkin-Elmer) and analyzed with GraphPad Prism using a 4-parameter logistic model.

[2] = molecular target: T1, recombinant human CD123 protein (Sino …); assay: ELISA on plate-coated recombinant human CD123
Experimental: as §1

[3] = molecular target: T1, recombinant human CD123 protein (Sino …); assay: ELISA on plate-coated recombinant human CD123, as in Example 2
Experimental: as §1

[4] = molecular target: T2, CD123 on AML cells (Kg-1a, MOLM-13, MV4-11, THP-1, PL21) (UniProt P26951 19-378); assay: cell-based or functional assay
[5] = molecular target: T2, CD123 on AML cells (Kg-1a, MOLM-13, …); assay: cell-based or functional assay; remark: listed apart in the source

| Binder | binding result [1] | binding result [2] | EC50 [3] | T Cell-Directed Killing EC50 (pM), MV411, Strong Donor T cells [4] | T Cell-Directed Killing EC50 (pM), MV411, Weak Donor T cells [4] | T Cell-Directed Killing EC50 (pM), PL21, Strong Donor T cells [4] | T Cell-Directed Killing EC50 (pM), THP-1, Strong Donor T cells [4] | further results |
| --- | --- | --- | --- | --- | --- | --- | --- | --- |
| anti-CD123×CD3 IgM #2 (bispecific antibody) heavy: QVQLVQSGAEVKKPGASVKVSCKASGYTFTSYWMNWVRQAPGQGLEWMGRIDPYDSETHYNQKFKDRVTMTVDKSTSTAYMELSSLRSEDTAVYYCARGNWDDYWGQGTTVTVSSGSASAPTLFPLVSCENSPSDTSSVAVGCLAQDFLPDSITFSWKYKNNSDISSTRGFPSVLRGGKYAATSQVLLPSKDVMQGTDEHVVCKVQHPNGNKEKNVPLPVIAELPPKVSVFVPPRDGFFGNPRKSKLICQATGFSPRQIQVSWLREGKQVGSGVTTDQVQAEAKESGPTTYKVTSTLTIKESDWLSQSMFTCRVDHRGLTFQQNASSMCVPDQDTAIRVFAIPPSFASIFLTKSTKLTCLVTDLTTYDSVTISWTRQNGEAVKTHTNISESHPNATFSAVGEASICEDDWNSGERFTCTVTHTDLPSPLKQTISRPKGVALHRPDVYLLPPAREQLNLRESATITCLVTGFSPADVFVQWMQRGQPLSPEKYVTSAPMPEPQAPGRYFAHSILTVSEEEWNTGETYTCVVAHEALPNRVTERTVDKSTGKPTLYNVSLVMSDTAGTCY light: EVVLTQSPATLSLSPGERATLSCRASKSISKDLAWYQQKPGQAPRLLIYSGSTLQSGIPARFSGSGSGTDFTLTISSLEPEDFAVYYCQQHNKYPYTFGGGTKVEIKRTVAAPSVFIFPPSDEQLKSGTASVVCLLNNFYPREAKVQWKVDNALQSGNSQESVTEQDSKDSTYSLSSTLTLSKADYEKHKVYACEVTHQGLSSPVTKSFNRGEC not shown | binds | binds | – | – | – | – | – | – |
| IGM #F-b-J*-H1 (bispecific antibody, IgM pentamer with a modified J-chain) VH: QVQLQESGPGLVKPSQSLSLTCSVTDYSITSGYYWNWIRQFPGNKLEWMGYISYDGSNNYNPSLKNRISITRDTSKNQFFLKLSSVTTEDTATYYCSRGEGFYFDSWGQGTTLTVSS VL: DIMMSQSPSSLAVSVGEKFTMTCKSSQSLFFGSTQKNYLAWYQQKPGQSPKLLIYWASTRESGVPDRFTGSGSGTDFTLAISSVMPEDLAVYYCQQYYNYPWTFGGGTKLEIK J-chain: not shown | – | – | 0.53 nM | 273 pM | 1080 pM | 102 pM | 66.3 pM | – |
| IGM #C-b-J*-H1 (bispecific antibody) VH: QVQLQQPGAELVRPGASVKLSCKASGYTFTSYWMNWVKQRPDQGLEWIGRIDPYDSETHYNQKFKDKAILTVDKSSSTAYMQLSSLTSEDSAVYYCARGNWDDYWGQGTTLTVSS VL: DVQITQSPSYLAASPGETITINCRASKSISKDLAWYQEKPGKTNKLLIYSGSTLQSGIPSRFSGSGSGTDFTLTISSLEPEDFAMYYCQQHNKYPYTFGGGTKLEIK J-chain: not shown | – | – | 0.354 nM | 0.1 pM | 528 pM | 147 pM | 104 pM | T Cell-Directed Killing EC50 (pM), THP-1, Weak Donor T cells [4]: 990 pM |
| IGM #B-b-J*-H1 (bispecific antibody) VH: QIQLVQSGPELKKPGETVKISCKASGYIFTNYGMNWVKQAPGKSFKWMGWINTYTGESTYSADFKGRFAFSLETSASTAYLHINDLKNEDTATYFCARSGGYDPMDYWGQGTSVTVSS VL: DIVLTQSPASLAVSLGQRATISCRASESVDNYGNTFMHWYQQKPGQPPKLLIYRASNLESGIPARFSGSGSRTDFTLTINPVEADDVATYYCQQSNEDPPTFGAGTKLELK J-chain: not shown | – | – | 0.298 nM | 41.2 pM | 35.3 pM | 4.9 pM | 12.9 pM | T Cell-Directed Killing EC50 (pM), PL21, Weak Donor T cells [4]: 227 pM; T Cell-Directed Killing EC50 (pM), THP-1, Weak Donor T cells [4]: 46.2 pM |
| anti-CD123×CD3 IgG #1 (bispecific antibody, Construct described in WO 2017/210443 A1, made by commercial vendors; also called bispecific anti-CD123×CD3 IgG #1; anti-CD123×anti-CD3 BiTE construct) heavy 1: QVQLQQSGAEVKKPGASVKVSCKASGYTFTDYYMKWVKQSHGKSLEWMGDIIPSNGATFYNQKFKGKATLTVDRSTSTAYMELSSLRSEDTAVYYCARSHLLRASWFAYWGQGTLVTVSSASTKGPSVFPLAPSSKSTSGGTAALGCLVKDYFPEPVTVSWNSGALTSGVHTFPAVLQSSGLYSLSSVVTVPSSSLGTQTYICNVNHKPSDTKVDKKVEPKSCDKTHTCPPCPAPPVAGPSVFLFPPKPKDTLMISRTPEVTCVVVDVKHEDPEVKFNWYVDGVEVHNAKTKPREEEYNSTYRVVSVLTVLHQDWLNGKEYKCKVSNKALPAPIEKTISKAKGQPREPQVYTLPPSREEMTKNQVSLTCDVSGFYPSDIAVEWESDGQPENNYKTTPPVLDSDGSFFLYSKLTVDKSRWEQGDVFSCSVMHEALHNHYTQKSLSLSPGK light: not shown heavy 2: not shown | binds | – | – | – | – | – | – | – |
| anti-CD123×CD3 IgM #1 (bispecific antibody, also called Anti-CD123 XCD3 IgM #1) heavy: QVQLQQSGAEVKKPGASVKVSCKASGYTFTDYYMKWVKQSHGKSLEWMGDIIPSNGATFYNQKFKGKATLTVDRSTSTAYMELSSLRSEDTAVYYCARSHLLRASWFAYWGQGTLVTVSSGSASAPTLFPLVSCENSPSDTSSVAVGCLAQDFLPDSITFSWKYKNNSDISSTRGFPSVLRGGKYAATSQVLLPSKDVMQGTDEHVVCKVQHPNGNKEKNVPLPVIAELPPKVSVFVPPRDGFFGNPRKSKLICQATGFSPRQIQVSWLREGKQVGSGVTTDQVQAEAKESGPTTYKVTSTLTIKESDWLSQSMFTCRVDHRGLTFQQNASSMCVPDQDTAIRVFAIPPSFASIFLTKSTKLTCLVTDLTTYDSVTISWTRQNGEAVKTHTNISESHPNATFSAVGEASICEDDWNSGERFTCTVTHTDLPSPLKQTISRPKGVALHRPDVYLLPPAREQLNLRESATITCLVTGFSPADVFVQWMQRGQPLSPEKYVTSAPMPEPQAPGRYFAHSILTVSEEEWNTGETYTCVVAHEALPNRVTERTVDKSTGKPTLYNVSLVMSDTAGTCY light: not shown not shown | binds | – | – | – | – | – | – | T cell-directed killing of MV4-11 cells (luciferase), EC50 [5]: 0.0136 nM; T cell-directed killing of THP-1 cells (luciferase), EC50 [5]: 0.0111 nM |
| anti-CD123 IgG #2 (antibody, V domains shown, Mono-specific IgG version of anti-CD123 #2; also called mono-specific IgG anti-CD123 construct) VH: QVQLVQSGAEVKKPGASVKVSCKASGYTFTSYWMNWVRQAPGQGLEWMGRIDPYDSETHYNQKFKDRVTMTVDKSTSTAYMELSSLRSEDTAVYYCARGNWDDYWGQGTTVTVSS VL: EVVLTQSPATLSLSPGERATLSCRASKSISKDLAWYQQKPGQAPRLLIYSGSTLQSGIPARFSGSGSGTDFTLTISSLEPEDFAVYYCQQHNKYPYTFGGGTKVEIKR | no binding | binds | – | – | – | – | – | – |
| IGM #A-b-J*-H1 (bispecific antibody) chain 1: EVQLVQSGAEVKKPGESLKISCKGSGYSFTDYYMKWARQMPGKGLEWMGDIIPSNGATFYNQKFKGQVTISADKSISTTYLQWSSLKASDTAMYYCARSHLLRASWFAYWGQGTMVTVSS chain 2: DIVMTQSPDSLAVSLGERATINCESSQSLLNSGNQKNYLTWYQQKPGQPPKPLIYWASTRESGVPDRFSGSGSGTDFTLTISSLQAEDVAVYYCQNDYSYPYTFGQGTKLEIKR chain 3: not shown | – | – | 0.198 nM | – | – | – | – | – |
| anti-CD123 IgG #1 (antibody, V domains shown, Mono-specific IgG version of anti-CD123 #1; also called mono-specific IgG anti-CD123 construct) VH: QVQLQQSGAEVKKPGASVKVSCKASGYTFTDYYMKWVKQSHGKSLEWMGDIIPSNGATFYNQKFKGKATLTVDRSTSTAYMELSSLRSEDTAVYYCARSHLLRASWFAYWGQGTLVTVSS VL: DFVMTQSPDSLAVSLGERATINCKSSQSLLNTGNQKNYLTWYQQKPGQPPKLLIYWASTRESGVPDRFTGSGSGTDFTLTISSLQAEDVAVYYCQNDYSYPYTFGGGTKLEIKR | no binding | binds | – | – | – | – | – | – |
